# In patent EP4745153A1, “GLP-1, GIP AND GCG RECEPTOR […] USE THEREOF” (Jiangsu Hengrui Pharmaceuticals Co., Ltd., priority 2023, dated 2025):
# Read-outs that look alike come from different tables or passages of the source. Starred links: 1 amine or outer side, 2 acyl side, 3 side chain; linkers in the order of their positions; H or OH if unused. Non-standard residues stand in square brackets, D forms with d. Groups on a side chain read outwards from the residue. No end group written: not given here. *: point of attachment. C20 diacid = O=C(O)CCCCCCCCCCCCCCCCCCC(=O)*; γGlu = O=C(O)[C@H](CCC(=O)[*:2])N[*:1]; αMeL = CC(C)C[C@](C)(N)C(=O)O; AEEA = NCCOCCOCC(=O)O; Aib = CC(C)(N)C(=O)O
# T1: human glucose-dependent insulinotropic polypeptide receptor (human, UniProt P48546 22-466)
# T1 sequence (looked up): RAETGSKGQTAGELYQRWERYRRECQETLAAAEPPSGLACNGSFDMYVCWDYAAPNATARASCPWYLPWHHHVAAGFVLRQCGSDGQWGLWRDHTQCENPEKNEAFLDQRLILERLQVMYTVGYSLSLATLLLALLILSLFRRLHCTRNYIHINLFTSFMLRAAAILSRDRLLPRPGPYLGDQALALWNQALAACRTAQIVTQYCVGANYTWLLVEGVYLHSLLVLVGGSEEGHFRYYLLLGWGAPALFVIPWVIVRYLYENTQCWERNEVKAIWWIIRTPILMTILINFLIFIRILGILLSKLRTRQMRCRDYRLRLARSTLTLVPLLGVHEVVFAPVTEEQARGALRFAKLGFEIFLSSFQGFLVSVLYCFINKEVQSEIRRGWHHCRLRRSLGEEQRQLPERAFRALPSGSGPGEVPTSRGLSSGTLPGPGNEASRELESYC
# What was measured:
# Assay in all cases: cell-based or functional assay
# [1] = molecular target: T1, human glucose-dependent insulinotropic …
# human glucagon receptor [2] = molecular target: T2, human glucagon receptor (human, UniProt P47871 26-477)
# [3] = molecular target: T3, human glucagon-like peptide-1 receptor (human, UniProt P43220 24-463)
# [4] = molecular target: T1, human glucose-dependent insulinotropic …; remark: listed apart in the source
# human glucagon receptor [5] = molecular target: T2, human glucagon receptor; remark: listed apart in the source
# [6] = molecular target: T3, human glucagon-like peptide-1 receptor; remark: listed apart in the source
# T2 sequence (P47871 26-477): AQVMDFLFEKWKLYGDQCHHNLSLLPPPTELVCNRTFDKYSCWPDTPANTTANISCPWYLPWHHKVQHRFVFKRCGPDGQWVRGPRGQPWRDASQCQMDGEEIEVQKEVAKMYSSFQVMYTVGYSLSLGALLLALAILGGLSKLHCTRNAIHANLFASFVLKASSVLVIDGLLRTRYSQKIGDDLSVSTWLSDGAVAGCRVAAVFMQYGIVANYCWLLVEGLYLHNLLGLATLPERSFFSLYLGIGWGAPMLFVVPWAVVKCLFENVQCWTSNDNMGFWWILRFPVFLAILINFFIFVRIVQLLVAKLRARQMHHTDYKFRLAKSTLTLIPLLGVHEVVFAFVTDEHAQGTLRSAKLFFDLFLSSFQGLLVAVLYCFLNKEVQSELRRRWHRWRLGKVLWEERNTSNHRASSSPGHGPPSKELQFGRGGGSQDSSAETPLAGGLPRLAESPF
binder,measurement,setting,value
H[Aib]HGTFTSDLSILLEK([AEEA-AEEA-γGlu-C20 diacid])KAAQEFVEWLLA[dE]GPSSGAPPPS-NH2 [Compound No. 0144],Activity against human GIPR (EC50 nM),[1],0.012 nM
same,Activity against human GCGR (EC50 nM),human glucagon receptor [2],0.311 nM
same,Activity against human GLP-1R (EC50 nM),[3],0.035 nM
H[Aib]HGTFTSDYSILLEK([AEEA-AEEA-γGlu-C20 diacid])QAAQEFVEWLLAGGPSSGAPPPS-NH2 (N-terminus assumed; SMILES CC[C@H](C)[C@H](NC(=O)[C@H](CO)NC(=O)[C@H](Cc1ccc(O)cc1)NC(=O)[C@H](CC(=O)O)NC(=O)[C@H](CO)NC(=O)[C@@H](NC(=O)[C@H](Cc1ccccc1)NC(=O)[C@@H](NC(=O)CNC(=O)[C@H](Cc1c[nH]cn1)NC(=O)C(C)(C)NC(=O)[C@@H](N)Cc1c[nH]cn1)[C@@H](C)O)[C@@H](C)O)C(=O)N[C@@H](CC(C)C)C(=O)N[C@@H](CC(C)C)C(=O)N[C@@H](CCC(=O)O)C(=O)N[C@@H](CCCCNC(=O)COCCOCCNC(=O)COCCOCCNC(=O)CC[C@H](NC(=O)CCCCCCCCCCCCCCCCCCC(=O)O)C(=O)O)C(=O)N[C@@H](CCC(N)=O)C(=O)N[C@@H](C)C(=O)N[C@@H](C)C(=O)N[C@@H](CCC(N)=O)C(=O)N[C@@H](CCC(=O)O)C(=O)N[C@@H](Cc1ccccc1)C(=O)N[C@H](C(=O)N[C@@H](CCC(=O)O)C(=O)N[C@@H](Cc1c[nH]c2ccccc12)C(=O)N[C@@H](CC(C)C)C(=O)N[C@@H](CC(C)C)C(=O)N[C@@H](C)C(=O)NCC(=O)NCC(=O)N1CCC[C@H]1C(=O)N[C@@H](CO)C(=O)N[C@@H](CO)C(=O)NCC(=O)N[C@@H](C)C(=O)N1CCC[C@H]1C(=O)N1CCC[C@H]1C(=O)N1CCC[C@H]1C(=O)N[C@@H](CO)C(N)=O)C(C)C) [Compound No. 0152],Activity against human GIPR (EC50 nM),[4],0.009 nM
same,Activity against human GCGR (EC50 nM),human glucagon receptor [5],0.29 nM
same,Activity against human GLP-1R (EC50 nM),[6],0.054 nM
H[Aib]HGTFTSDYSI[αMeL]LEK([AEEA-AEEA-γGlu-C20 diacid])KAAQEFVEWLLA[dE]GPSSGAPPPS-NH2 (N-terminus assumed; SMILES CC[C@H](C)[C@H](NC(=O)[C@H](CO)NC(=O)[C@H](Cc1ccc(O)cc1)NC(=O)[C@H](CC(=O)O)NC(=O)[C@H](CO)NC(=O)[C@@H](NC(=O)[C@H](Cc1ccccc1)NC(=O)[C@@H](NC(=O)CNC(=O)[C@H](Cc1c[nH]cn1)NC(=O)C(C)(C)NC(=O)[C@@H](N)Cc1c[nH]cn1)[C@@H](C)O)[C@@H](C)O)C(=O)N[C@@](C)(CC(C)C)C(=O)N[C@@H](CC(C)C)C(=O)N[C@@H](CCC(=O)O)C(=O)N[C@@H](CCCCNC(=O)COCCOCCNC(=O)COCCOCCNC(=O)CC[C@H](NC(=O)CCCCCCCCCCCCCCCCCCC(=O)O)C(=O)O)C(=O)N[C@@H](CCCCN)C(=O)N[C@@H](C)C(=O)N[C@@H](C)C(=O)N[C@@H](CCC(N)=O)C(=O)N[C@@H](CCC(=O)O)C(=O)N[C@@H](Cc1ccccc1)C(=O)N[C@H](C(=O)N[C@@H](CCC(=O)O)C(=O)N[C@@H](Cc1c[nH]c2ccccc12)C(=O)N[C@@H](CC(C)C)C(=O)N[C@@H](CC(C)C)C(=O)N[C@@H](C)C(=O)N[C@H](CCC(=O)O)C(=O)NCC(=O)N1CCC[C@H]1C(=O)N[C@@H](CO)C(=O)N[C@@H](CO)C(=O)NCC(=O)N[C@@H](C)C(=O)N1CCC[C@H]1C(=O)N1CCC[C@H]1C(=O)N1CCC[C@H]1C(=O)N[C@@H](CO)C(N)=O)C(C)C) [Compound No. 0139],Activity against human GIPR (EC50 nM),[1],0.007 nM
same,Activity against human GCGR (EC50 nM),human glucagon receptor [2],0.43 nM
same,Activity against human GLP-1R (EC50 nM),[3],0.043 nM
H[Aib]HGTFTSDLSI[αMeL]LEK([AEEA-AEEA-γGlu-C20 diacid])KAAQEFVEWLLAGGPSSGAPPPS-NH2 (N-terminus assumed; SMILES CC[C@H](C)[C@H](NC(=O)[C@H](CO)NC(=O)[C@H](CC(C)C)NC(=O)[C@H](CC(=O)O)NC(=O)[C@H](CO)NC(=O)[C@@H](NC(=O)[C@H](Cc1ccccc1)NC(=O)[C@@H](NC(=O)CNC(=O)[C@H](Cc1c[nH]cn1)NC(=O)C(C)(C)NC(=O)[C@@H](N)Cc1c[nH]cn1)[C@@H](C)O)[C@@H](C)O)C(=O)N[C@@](C)(CC(C)C)C(=O)N[C@@H](CC(C)C)C(=O)N[C@@H](CCC(=O)O)C(=O)N[C@@H](CCCCNC(=O)COCCOCCNC(=O)COCCOCCNC(=O)CC[C@H](NC(=O)CCCCCCCCCCCCCCCCCCC(=O)O)C(=O)O)C(=O)N[C@@H](CCCCN)C(=O)N[C@@H](C)C(=O)N[C@@H](C)C(=O)N[C@@H](CCC(N)=O)C(=O)N[C@@H](CCC(=O)O)C(=O)N[C@@H](Cc1ccccc1)C(=O)N[C@H](C(=O)N[C@@H](CCC(=O)O)C(=O)N[C@@H](Cc1c[nH]c2ccccc12)C(=O)N[C@@H](CC(C)C)C(=O)N[C@@H](CC(C)C)C(=O)N[C@@H](C)C(=O)NCC(=O)NCC(=O)N1CCC[C@H]1C(=O)N[C@@H](CO)C(=O)N[C@@H](CO)C(=O)NCC(=O)N[C@@H](C)C(=O)N1CCC[C@H]1C(=O)N1CCC[C@H]1C(=O)N1CCC[C@H]1C(=O)N[C@@H](CO)C(N)=O)C(C)C) [Compound No. 0143],Activity against human GIPR (EC50 nM),[1],0.004 nM
same,Activity against human GCGR (EC50 nM),human glucagon receptor [2],0.423 nM
same,Activity against human GLP-1R (EC50 nM),[3],0.09 nM
H[Aib]HGTFTSDLSI[αMeL]LEK([AEEA-AEEA-γGlu-C20 diacid])KAAQEFVEWLLA[dE]GPSSGAPPPS-NH2 (N-terminus assumed; SMILES CC[C@H](C)[C@H](NC(=O)[C@H](CO)NC(=O)[C@H](CC(C)C)NC(=O)[C@H](CC(=O)O)NC(=O)[C@H](CO)NC(=O)[C@@H](NC(=O)[C@H](Cc1ccccc1)NC(=O)[C@@H](NC(=O)CNC(=O)[C@H](Cc1c[nH]cn1)NC(=O)C(C)(C)NC(=O)[C@@H](N)Cc1c[nH]cn1)[C@@H](C)O)[C@@H](C)O)C(=O)N[C@@](C)(CC(C)C)C(=O)N[C@@H](CC(C)C)C(=O)N[C@@H](CCC(=O)O)C(=O)N[C@@H](CCCCNC(=O)COCCOCCNC(=O)COCCOCCNC(=O)CC[C@H](NC(=O)CCCCCCCCCCCCCCCCCCC(=O)O)C(=O)O)C(=O)N[C@@H](CCCCN)C(=O)N[C@@H](C)C(=O)N[C@@H](C)C(=O)N[C@@H](CCC(N)=O)C(=O)N[C@@H](CCC(=O)O)C(=O)N[C@@H](Cc1ccccc1)C(=O)N[C@H](C(=O)N[C@@H](CCC(=O)O)C(=O)N[C@@H](Cc1c[nH]c2ccccc12)C(=O)N[C@@H](CC(C)C)C(=O)N[C@@H](CC(C)C)C(=O)N[C@@H](C)C(=O)N[C@H](CCC(=O)O)C(=O)NCC(=O)N1CCC[C@H]1C(=O)N[C@@H](CO)C(=O)N[C@@H](CO)C(=O)NCC(=O)N[C@@H](C)C(=O)N1CCC[C@H]1C(=O)N1CCC[C@H]1C(=O)N1CCC[C@H]1C(=O)N[C@@H](CO)C(N)=O)C(C)C) [Compound No. 0142],Activity against human GIPR (EC50 nM),[1],0.007 nM
same,Activity against human GCGR (EC50 nM),human glucagon receptor [2],0.49 nM
same,Activity against human GLP-1R (EC50 nM),[3],0.058 nM
